Ends that are not written are not given here.
How the values were obtained:
A1PI [1] = target: T1, A1PI (Homo sapiens, UniProt P01009); experiment: Purification of A1PI from Effluent II+III on peptide column, A1PI mass balance; assay type: binding; details: A1PI, 1 ml Eff. II+III, 4° C.
T1 construct: Human plasma is currently the only approved source of therapeutic AlPI
Method in brief: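 Peptide-ligand columns were loaded with 1 ml Cohn Effluent II+III (20% v/v ethanol, 20-25 mg/ml hSA, ~1 mg/ml A1PI, other plasma proteins at 0.1-1 mg/ml) using a 10 min residence time at 4° C. Step elutions at 865 μl/min used 1M NaCl, 3M NaCl, then 2% acetic acid, and protein mass balances were tracked across fractions.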

Immunoglobulin A (IgA) = experiment: Purification from Effluent II+III, IgA mass balance; assay type: binding, human; details: 1 ml Eff. II+III, 4° C.
Description: (§1) Sequences 1-11 and 15 were assayed with Effluent II+III (Eff. II+III). Eff. II+III is a process intermediate in the Cohn plasma fractionation process. The feed stream contains 20% (by volume) ethanol, 20-25 mg/ml hSA and approximately 1 mg/ml AlPI. The stream also contains other proteins including anti-thrombin III (AT3), immunoglobin G (IgG), immunoglobin A (IgA), apolipoprotein alpha-1 (Apo A-1), transferrin (Trf), haptoglobin (Hpt), and alpha-1 acid glycoprotein (AAG) at concentrations ranging from 0.1-1 mg/ml.
(§2) The columns were assayed using the same technique as the hSA+AlPI experiments, allowing for a 10 minute residence time followed by a constant flow rate of 865 μl/min with step elutions of 1M NaCl, 3M NaCl, and 2% acetic acid. All experiments were conducted at 4° C. The mass balances for the injection of 1 ml Eff. […] The AlPI was enriched from 3% of the total protein in the feed to upwards of 50% in the acid eluate.

Immunoglobulin G (IgG) = experiment: Purification from Effluent II+III, IgG mass balance; assay type: binding, human; details: 1 ml Eff. II+III, 4° C.
Description: as §1, §2

A1PI [2] = target: T1, A1PI; experiment: A1PI purification from 5 mg hSA + 1 mg A1PI on peptide column, A1PI mass balance; assay type: binding; details: A1PI, 5 mg hSA + 1 mg A1PI; for Percent Eluted by Fraction, 1M NaCl / Percent Eluted by Fraction, 2% Ac. Acid / Percent Eluted by Fraction, 3M NaCl / Percent Eluted by Fraction, Flow: relative to total eluted
Method in brief: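 Peptides on A-Totda-Toyopearl resin (0.1 mmole/g) in 0.4×5 cm columns; 5 mg hSA + 1 mg A1PI loaded at 4 °C or 20 °C with 10 min residence (17 μl/min). Steps of 1M and 3M NaCl, then 2% acetic acid; fractions quantified by immunonephelometry for mass balance.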

A1PI [3] = target: T1, A1PI; experiment: A1PI yield from dialyzed (aqueous) Effluent II+III; assay type: binding; details: 4° C.
Description: Effluent II+III was dialyzed against equilibration buffer at 4° C. to remove the ethanol using a 15,000 molecular weight cut-off membrane. Nephelometry of the Eff. […] A portion of the identified sequences were assayed under the same conditions applied for neat Eff. II+III at 4° C. […] II+III compared to the neat, ethanol-containing feed. The binding strength differed for the aqueous feed as more AlPI eluted in 1M NaCl for the aqueous feed. The AlPI eluted in the 1M NaCl fractions was not as enriched as that eluted in the acid eluates.

[4] = target: T2, apolipoprotein alpha-1 (Apo A-1) (Homo sapiens, UniProt P02647); experiment: Purification from Effluent II+III, Apo A-1 mass balance; assay type: binding; details: 1 ml Eff. II+III, 4° C.
T2 construct: Eff; II+III is a process intermediate in the Cohn plasma fractionation process; tissue Bayer Corporation (Clayton, N.C.); host or cells: plasma fraction: Cohn Effluent II+III
Description: as §1, §2

A1PI [5] = target: T1, A1PI; experiment: A1PI binding on peptide-resin column, injection of 1 mg A1PI in equilibration buffer; details: 1 mg A1PI in equilibration buffer
Method in brief: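 Peptides synthesized on A-Totda-Toyopearl chelate resin (0.1 mmole/g) packed in 0.4×5 cm columns; 1 mg A1PI injected in equilibration buffer at 4 °C or 20 °C, 865 or 523 μl/min. Flowthrough, 1M/3M NaCl washes and 2% acetic acid eluate quantified by A280 or immunonephelometry as percent of total eluted.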

[6] = * as in Tables 4, 5 (below detection limit)
[7] = 20° C., * Below detection limit
[8] = 1 ml dialyzed Eff. II+III (ethanol removed)
[9] = A1PI, 1 ml dialyzed Eff. II+III

T2 sequence (P02647 19-267): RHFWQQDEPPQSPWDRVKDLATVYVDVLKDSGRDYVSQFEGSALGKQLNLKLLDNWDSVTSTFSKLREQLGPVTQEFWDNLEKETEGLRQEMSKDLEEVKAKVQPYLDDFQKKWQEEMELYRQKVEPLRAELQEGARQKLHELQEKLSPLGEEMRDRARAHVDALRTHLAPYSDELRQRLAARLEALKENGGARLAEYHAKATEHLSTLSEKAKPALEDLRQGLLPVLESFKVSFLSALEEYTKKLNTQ
T1 sequence (P01009 25-418): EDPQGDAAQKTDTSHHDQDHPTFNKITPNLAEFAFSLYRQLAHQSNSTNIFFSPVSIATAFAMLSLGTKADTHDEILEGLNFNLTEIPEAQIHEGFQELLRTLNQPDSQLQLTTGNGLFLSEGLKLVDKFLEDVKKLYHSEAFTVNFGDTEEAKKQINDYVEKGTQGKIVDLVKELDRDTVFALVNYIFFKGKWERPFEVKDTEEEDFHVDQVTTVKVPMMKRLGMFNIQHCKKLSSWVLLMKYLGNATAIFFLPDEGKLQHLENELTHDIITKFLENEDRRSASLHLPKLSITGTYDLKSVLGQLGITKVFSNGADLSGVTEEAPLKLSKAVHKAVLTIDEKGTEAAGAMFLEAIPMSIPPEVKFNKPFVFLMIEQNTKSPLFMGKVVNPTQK

ARWYIH
Percent Eluted by Fraction, 1M NaCl (A1PI [1]): 7%
Percent Eluted by Fraction, 2% Acetic Acid (A1PI [1]): 75%
Percent Eluted by Fraction, 3M NaCl (A1PI [1]): 0%
Percent Eluted by Fraction, Flow (A1PI [1]): 18%
Mass Protein per Eluate Fraction, 1M NaCl (A1PI [1]; [6]): 0.08 mg
Mass Protein per Eluate Fraction, 2% Acetic Acid (A1PI [1]; [6]): 0.81 mg
Mass Protein per Eluate Fraction, Flow (A1PI [1]; [6]): 0.20 mg
Percent Eluted by Fraction, 1M NaCl (Immunoglobulin A (IgA)): 18%
Percent Eluted by Fraction, 2% Acetic Acid (Immunoglobulin A (IgA)): 56%
Percent Eluted by Fraction, 3M NaCl (Immunoglobulin A (IgA)): 0%
Percent Eluted by Fraction, Flow (Immunoglobulin A (IgA)): 25%
Mass Protein per Eluate Fraction, 1M NaCl (Immunoglobulin A (IgA); [6]): 0.07 mg
Mass Protein per Eluate Fraction, 2% Acetic Acid (Immunoglobulin A (IgA); [6]): 0.21 mg
Mass Protein per Eluate Fraction, Flow (Immunoglobulin A (IgA); [6]): 0.09 mg
Percent Eluted by Fraction, 1M NaCl (Immunoglobulin G (IgG)): 0%
Percent Eluted by Fraction, 2% Acetic Acid (Immunoglobulin G (IgG)): 7%
Percent Eluted by Fraction, 3M NaCl (Immunoglobulin G (IgG)): 0%
Percent Eluted by Fraction, Flow (Immunoglobulin G (IgG)): 93%
Mass Protein per Eluate Fraction, 2% Acetic Acid (Immunoglobulin G (IgG); [6]): 0.02 mg
Mass Protein per Eluate Fraction, Flow (Immunoglobulin G (IgG); [6]): 0.23 mg
Mass Protein per Eluate Fraction, 1M NaCl (A1PI [2]; 4° C., * Below detection limit): 0.33 mg
Mass Protein per Eluate Fraction, 2% Ac. Acid (A1PI [2]; 4° C., * Below detection limit): 0.41 mg
Mass Protein per Eluate Fraction, 3M NaCl (A1PI [2]; 4° C., * Below detection limit): 0.04 mg
Percent Eluted by Fraction, 1M NaCl (A1PI [2]; 4° C.): 43%
Percent Eluted by Fraction, 2% Ac. Acid (A1PI [2]; 4° C.): 53%
Percent Eluted by Fraction, 3M NaCl (A1PI [2]; 4° C.): 5%
Percent Eluted by Fraction, Flow (A1PI [2]; 4° C.): 0%
Mass Protein per Eluate Fraction, 1M NaCl (A1PI [2]; [7]): 0.16 mg
Mass Protein per Eluate Fraction, 2% Ac. Acid (A1PI [2]; [7]): 0.15 mg
Mass Protein per Eluate Fraction, Flow (A1PI [2]; [7]): 0.67 mg
Percent Eluted by Fraction, 1M NaCl (A1PI [2]; 20° C.): 16%
Percent Eluted by Fraction, 2% Ac. Acid (A1PI [2]; 20° C.): 15%
Percent Eluted by Fraction, 3M NaCl (A1PI [2]; 20° C.): 0%
Percent Eluted by Fraction, Flow (A1PI [2]; 20° C.): 69%
Mass A1PI per Eluate Fraction, 1M NaCl (A1PI [3]; [8]): 0.18 mg
Mass A1PI per Eluate Fraction, 2% Acetic Acid (A1PI [3]; [8]): 0.20 mg
Mass A1PI per Eluate Fraction, Flowthrough (A1PI [3]; [8]): 0.24 mg
Percent Eluted by Fraction, 1M NaCl (A1PI [3]; [9]): 30%
Percent Eluted by Fraction, 2% Acetic Acid (A1PI [3]; [9]): 32%
Percent Eluted by Fraction, Flowthrough (A1PI [3]; [9]): 39%
Percent Eluted by Fraction, 1M NaCl [4]: 0%
Percent Eluted by Fraction, 2% Acetic Acid [4]: 100%
Percent Eluted by Fraction, 3M NaCl [4]: 0%
Percent Eluted by Fraction, Flow [4]: 0%
Mass Protein per Eluate Fraction, 2% Acetic Acid [4, 6]: 0.29 mg
Percent A1PI Eluted by Fraction Based on Absorbance at 280 nm, 1M NaCl (A1PI [5]; 4° C.): 55%
Percent A1PI Eluted by Fraction Based on Absorbance at 280 nm, 2% Acetic Acid (A1PI [5]; 4° C.): 45%
Percent A1PI Eluted by Fraction Based on Absorbance at 280 nm, Flowthrough (A1PI [5]; 4° C.): 0%
Percent A1PI Eluted by Fraction, 1M NaCl (A1PI [5]; 20° C.): 84%
Percent A1PI Eluted by Fraction, 2% Acetic Acid (A1PI [5]; 20° C.): 16%
Percent A1PI Eluted by Fraction, Flowthrough (A1PI [5]; 20° C.): 0%
